Results: the DeepSol protein solubility set

Experiment: soluble on expression in E. coli; label from the status in PepcDB or PDB records

Soluble on expression in E. coli, not soluble:
MGSDKIHHHHHHMSFFPGPDPLAGDKPACDAIEHLIIPRTSDIGGLQVRRALPTAKRRLVGPFIFFDRMGPALLRAGQAIDVRPHPHIGLSTVTYLFDGEIKHRDSLGTEMVIRPGDVNLMTAGRGIVHSERSPENQRGHERSLSGLQTWLALPDAMEEIDPVFAHTEERMLPHLADGGVRARVVIGQFEGAASPVSTFTDTIYVDLMIEPGKSAPFAANWEERALYILSGEAIIAGDHFDNNQLLVFRPGDEITITAGPAGCHVMLFGGAALGSPRHIWWNFVSSSKERIDKAKEEWRTGRFDIVPGDEEEFIPLPAS, MGSDKIHHHHHHMSFKSSIAKMAGKSSYWFLHTFRSGGSSLPGKITTKIDPTILKDLGKDYDVIVITGTNGKTLTTALTVKVLRQKFDHVLTNPTGSNMEQGIVTTFLTDHKSKNGKNIAILEVDEANVIKVTQYIKPLAFVFTNIFRDQMDRYGEIYTTYRKILDGVKLAPEATIIANGDMPIFNSVDLPNPVVYYGFNNQPDGEMKADPNTDGVVCPRCEHIIHYKFISYSNQGKYYCPNCGWERPELTYQLTQITKLTPNLSKFFIDASNFTLHIGGLYNVYNALAAYSVGKFMGVPTSSIQKALNDPDERVFGRQEQINVDGKEITIVLVKNPVGLNQVIDMVGTESEPFSFVGLLNANYADGIDTSWIWDGNFEKLTQMPIQQYMTGGERYKDITFRLKVAGIEDNQLWTYDNLKDAVSNIKNLPTKRVYVFATYTAMLQLRKQLATEGYIKEGI, MGSDKIHHHHHHMSGPAGLIVRMDGFNLPAGYLASDEARAISFAYDDRYIAAGGPPLSLSMPLEQVSFGDVTARAFFDNLLPENDQMQRVMDREGLARDDIVGLLSHLGADCSGAISCLPIGADPIKVPGVLSEDYELLAPGAIAEIARSLAERQRLPDTITDPSPVAGVQRKIALTHTPQGFAKPRPGRKVPTTHILKVPETRLRRDARLEAAAARLASALGLDVSIPEAIVIDGVDALLITRFDRVVRDGVVYRLHQEDFAQAMGLPATLKYQRNGAPGRQFDAQAIARVLDQTEAPALSRTAFLSATIFNLLIGNTDNHAKNHGLLYRQGRAPILAPLYDLLPSRMNLDFNDQLSFNIGAADHPDAITFDDMMAFFEVFGMRRAAAARFIENVIKPMIEALERATLGLAGERLKDMDDLIGRETEQLVEVLGLDVAVRERDYYPKVRHALAPS, MGSDKIHHHHHHMSGTAEVNPITVDVYLDITVENISTLKDLTVKFDNYDEDLHYVKEVTDNSVKVDGIIPGIYSVTVSGTAIDTENNEYYINGNSVNAALFKHGSALNIEVQGLKVSPLIFKEIYYCGSRPEKGGVYFRDQFYEIYNNSADILYLDGIYFANLTPGTATTKLPIWPEADGNNYAYGERVWKFPGNGTEYPLAPGESCIISQFAANHQLDIYNPQSPIDGSSSEFEFNMNNPNFPDQAAYDMQHVFYQGKAEMGSIPQYLTSVFGGAYVIFRVPEGEAWDPVNDENMKTTDLSKPNSNVYYAKIPIKYVLDAVEAVNNESKMNAKRVPGVLDAGITWVGATYCGLGIARKLSTDEEGNPIIREETGTYIYQDTNNSTDDFERGVVPVMRRNGAKMPSWNHTL, MGSDKIHHHHHHMSHEVDPRVDKTRRRLRQALITLLQTETVDNISVQKLTSTAAVTRGTFYLHYKDKPAFVDQALDDLVSELFETAIVTVSVGDIMTNPADPLQRVHVFSLSKALSYISQHAEAFETLLLDQRQLAVNQRINQQMTTWMTKFHRDFQDQFADLEVPVSIQIAYYVSATVGLITDWLANDMIYTPHYLTKCIKKMHHLMTVGSISFTDFFVK, MGSDKIHHHHHHMSHGAGEPYFLTEMSDMAVAGCHVMAKPGGAICNIDCTYCFYLEKEALYPERNKNWRMSDETLEQFIRQHIAAQSGDRIDFAWQGGEPTMMGLPFFRRVVALCEKYGDGRKITHALQTNGILVNDEWARFFAEQHFLIGLSIDGPASLHNHYRFNRAGKGTHEQVVAAMARLKAHHVDFNTLTVVGKHNVGHAADVYEFLLAAGSRFIQFIPLVERMSTDNSSVLNLVMPGESAATLAPWTVPSWQYGEFLNQIFDIWVRRDVDRVYVQMFDVALAAWTAQQPVLCVHSETCGHAFALESNGDLYNCDHFVYPEHLLGNIHQHSIKALNNSERAIAFGEAKRETLTADCRRCDYRFVCHGGCPKHRFAVSPSGHPAHNYLCAGYKHFFQHVTPYMNVWRELLAQGYPMASIMRWLAQDARKDTGAVSRNHPCPCGSGKKYKKCCGKA, MGSDKIHHHHHHMSHPPLIVHVIFHLGVGGLENGLVNLINHIPADRYRHAIICLKGFSEFHKRLNRDDVEIIALNKREGKDFSVYGKLYRVFRQLKPDIVHTRNLTAMEAQVVAAVAGVKARVHGEHGRDIFDLDGKNWKYNLLRKAIRPFIHHFITVSKDLENWLIDTVKVSPVKVHQIYNGVEHLRFHPGGTVPVEIFPPDFFAGRPFVVGSVGRMAAVKDFPTLVQAFLMLRNELSEIDRPLRLIIAGEGVARAECEAMLRSAGVEQFAWLPGERDDIPQLMQAMDVFVLPSLGEGISNTVLEAMASGLPVIATRVGGNTELVLEGETGRLVPSGDPVALARAISQYHQDNTAVYKHGQHARAIIEQQFSMRSMTNGYLAVYDRVLGYKSKTETIN, MGSDKIHHHHHHMSIDNVSGTSSNTGNVNGSKRAAGSGATETGQSVKGSSNLGKDEFLKLLVAQLKNQDPMSPQQNGEFIAQLAQFSTVEGVQSLNKSMESILSNYQSSQALQASSLVGRKVIVATDKSVVDTKDTFKASLNLPVSSSNVWVNVYDDKGTVVNRINLGQQAAGSVSFMWDGKDSSGNIMPPGTYKFEAQTSIDGKTYGLQTYLPANVDSVTLGQNGGELMLNLAGLGSIALSKVQIIGQ, MGSDKIHHHHHHMSKAKRLMELMMVINRKRRFTVKELAEEFSVSSRTILRDLQELSELGVPLYSEVGPHGGYEVLNERVLPPIAFTEEEAVAIFFTVHALRHFSALPFQAESSSVNHKFYSYMPEDVKERIDQLKNRFDFETPMRPLATPYLPTLLDAAIKQNVVSIEYETSQEKTKREIQPIGVYARDGFWYCPSYCFLREDMRLFRCDRITYVTEQTTNNPLNFRHVHLGNWQSYMKQERNVLDFYVELSQDGVQRCVAEQWLKPHLHIRQDGSGWLEGPFPESEVPYFSYYFIGFGHDATVKQPVQLVTLIKKSLRELLSKYNGEKEGLPQKSF, MGSDKIHHHHHHMSKFWEKEFTCPFCGTKFKKKMVFFDSIKIKARDIDLKPVFEDVNPMFYEVVTCPNCYFSAFDKDFETITIKGEETERKLKKLLEEAKKKVELKNVENHVEAIKRYALSGMVYSVLNQRKKVAISYLKIAWLFRELGKSEEEKRYLERALKEFESHYKYDYYEESDEPMILFYLGVLNQILGNRKEAARWYELLLRKYDGKSLYAKVGRERWQELRRS, MGSDKIHHHHHHMSKILNTQLIGIFNRLEKQSLEIQMAAQCLIQAIGGEGYVYVKGYDDLQFFESFILHSDERLKSSRKLDAIKDFKEIDSTDRVLLFAPFYNDQVALDIQKLIDLDIDVVLISNKPKTDDFPDHLVHFIDLSTPRPIVYTEDYDKIVQPHAIALNYVYYDIYTQMIEMTRDLEL, MGSDKIHHHHHHMSKILSIIIPTYNAEKFLNKGLSSFLVCRDTDAQTAQHNCKMATEGRFEEIDIDKAILDKLEVIVVNDGTPDKSVEVAQKFVDWYPDTFVIVNKTNGGHGSAINTGVEHVRGKYLKVVDADDWVDTLALKKLITTLQVLEAAQEKQDTRVMDAMLMSYTTYDLQKAAKGDIPYEEHLVVPGTKHDKSVDIQNLGGPYSSQVIAKHFDDVYWGLTFHGILYNTAFYRGLAHKLAEGIFYEDQEYAAVPMAYADTIYVYDEQLYQYRIGDVSQSISMESSLKRLSHYETVIRTLIAEGGNSEEFAPGGKQIWGIKTAKFIDDYYQLCLIKNPDKKMLRDRMEKFTSEIKSADGYIYGLIEKNYKVFRMLNKLHMNEKVYQKVFIPMVHLIRK, MGSDKIHHHHHHMSKMLTLAVRAHDVGTKISPVELAKKIAETNITSIQFALGISYPEYASAAVLSPGLGSQLKNIFEDEKITISVLSCYINLIHPDLEEREKRLHQFETYIRYDSMFGAKIVATETGSIYETIYYTEDNYTEEAYEEVLFSVRRLCREAEKYGIIVGIEPGINHPIHTIEKMQRLIDEVASTNLGIILDPTNLIRVDIDKTYLEIVEEAFECFGEKIVAFHLKDFIIRNQQIFPVAIGEGQVPLTETIQFLNKHKPGLFTIFEETPFEKIASAYQKVSQYHSI
